This note sets out measurements from PMC8033513 (2021).

For orientation: Kd means the concentration at which binding is half-saturated. Low readings indicate a tighter complex, high ones a looser complex.

The chains are these.
B2: extra‐cellular domain (ECD) of human UNC5H3 (domain or fragment)
chain: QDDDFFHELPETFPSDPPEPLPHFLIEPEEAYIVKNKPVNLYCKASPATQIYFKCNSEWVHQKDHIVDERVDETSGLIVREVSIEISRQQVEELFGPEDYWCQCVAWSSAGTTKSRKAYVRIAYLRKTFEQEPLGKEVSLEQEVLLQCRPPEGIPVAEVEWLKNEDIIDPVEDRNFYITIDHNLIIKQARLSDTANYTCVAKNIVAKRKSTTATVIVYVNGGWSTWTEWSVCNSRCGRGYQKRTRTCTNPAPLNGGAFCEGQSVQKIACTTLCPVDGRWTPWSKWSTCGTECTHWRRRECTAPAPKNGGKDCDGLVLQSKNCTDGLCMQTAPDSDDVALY
B3: extra‐cellular domain (ECD) of human UNC5H1 (domain or fragment)
chain: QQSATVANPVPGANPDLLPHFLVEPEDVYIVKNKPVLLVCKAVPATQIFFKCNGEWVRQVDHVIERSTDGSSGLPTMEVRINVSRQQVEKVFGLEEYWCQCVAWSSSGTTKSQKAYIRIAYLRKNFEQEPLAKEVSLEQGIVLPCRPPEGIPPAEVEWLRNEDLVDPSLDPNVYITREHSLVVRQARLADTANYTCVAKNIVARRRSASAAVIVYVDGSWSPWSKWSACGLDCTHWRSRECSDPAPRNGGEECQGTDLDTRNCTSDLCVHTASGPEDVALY
B4: extra‐cellular domain (ECD) of rat UNC5H2 (Fc fusion)
chain: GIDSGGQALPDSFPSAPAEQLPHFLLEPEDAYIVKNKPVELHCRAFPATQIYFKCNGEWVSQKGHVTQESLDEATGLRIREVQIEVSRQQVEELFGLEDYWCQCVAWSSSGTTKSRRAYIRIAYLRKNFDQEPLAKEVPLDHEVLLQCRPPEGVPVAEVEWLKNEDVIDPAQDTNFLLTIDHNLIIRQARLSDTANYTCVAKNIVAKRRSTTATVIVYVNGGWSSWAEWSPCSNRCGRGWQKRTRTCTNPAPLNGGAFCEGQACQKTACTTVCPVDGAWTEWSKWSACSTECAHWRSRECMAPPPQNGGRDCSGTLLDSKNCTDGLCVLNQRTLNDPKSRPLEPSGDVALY
B5: extra‐cellular domain (ECD) of mouse Neogenin (Fc fusion)
chain: RPASGAAATKSGSPPQSAGASVRTFTPFYFLVEPVDTLSVRGSSVILNCSAYSEPSPNIEWKKDGTFLNLESDDRRQLLPDGSLFISNVVHSKHNKPDEGFYQCVATVDNLGTIVSRTAKLTVAGLPRFTSQPEPSSVYVGNSAILNCEVNADLVPFVRWEQNRQPLLLDDRIVKLPSGTLVISNATEGDGGLYRCIVESGGPPKFSDEAELKVLQDPEEIVDLVFLMRPSSMMKVTGQSAVLPCVVSGLPAPVVRWMKNEEVLDTESSGRLVLLAGGCLEISDVTEDDAGTYFCIADNGNKTVEAQAELTVQVPPGFLKQPANIYAHESMDIVFECEVTGKPTPTVKWVKNGDVVIPSDYFKIVKEHNLQVLGLVKSDEGFYQCIAENDVGNAQAGAQLIILEHDVAIPTLPPTSLTSATTDHLAPATTGPLPSAPRDVVASLVSTRFIKLTWRTPASDPHGDNLTYSVFYTKEGVARERVENTSQPGEMQVTIQNLMPATVYIFKVMAQNKHGSGESSAPLRVETQPEVQLPGPAPNIRAYATSPTSITVTWETPLSGNGEIQNYKLYYMEKGTDKEQDIDVSSHSYTINGLKKYTEYSFRVVAYNKHGPGVSTQDVAVRTLSDVPSAAPQNLSLEVRNSKSIVIHWQPPSSTTQNGQITGYKIRYRKASRKSDVTETLVTGTQLSQLIEGLDRGTEYNFRVAALTVNGTGPATDWLSAETFESDLDETRVPEVPSSLHVRPLVTSIVVSWTPPENQNIVVRGYAIGYGIGSPHAQTIKVDYKQRYYTIENLDPSSHYVITLKAFNNVGEGIPLYESAVTRPHTDTSEVDLFVINAPYTPVPDPTPMMPPVGVQASILSHDTIRITWADNSLPKHQKITDSRYYTVRWKTNIPANTKYKNANATTLSYLVTGLKPNTLYEFSVMVTKGRRSSTWSMTAHGATFELVPTSPPKDVTVVSKEGKPRTIIVNWQPPSEANGKITGYIIYYSTDVNAEIHDWVIEPVVGNRLTHQIQELTLDTPYYFKIQARNSKGMGPMSEAVQFRTPKADSSDKMPNDQALGSAGKGSRLPDLGSDYKPPMSGSNSPHGSPTSPLDSNML
B6: extra‐cellular domain (ECD) of mouse DCC (Fc fusion)
chain: HLQVTGFQIKPFTSLHFVSEPSDAVTMRGGNVLLNCSAESDRGVPVIKWKKDGLILALGMDDRKQQLPNGSLLIQNILHSRHHKPDEGLYQCEASLADSGSIISRTAKVTVAGPLRFLSQTESITAFMGDTVLLKCEVIGEPMPTIHWQKNQQDLNPLPGDSRVVVLPSGALQISRLQPGDSGVYRCSARNPASIRTGNEAEVRILSDPGLHRQLYFLQRPSNVIAIEGKDAVLECCVSGYPPPSFTWLRGEEVIQLRSKKYSLLGGSNLLISNVTDDDSGTYTCVVTYKNENISASAELTVLVPPWFLNHPSNLYAYESMDIEFECAVSGKPVPTVNWMKNGDVVIPSDYFQIVGGSNLRILGVVKSDEGFYQCVAENEAGNAQSSAQLIVPKPAIPSSSILPSAPRDVLPVLVSSRFVRLSWRPPAEAKGNIQTFTVFFSREGDNRERALNTTQPGSLQLTVGNLKPEAMYTFRVVAYNEWGPGESSQPIKVATQPELQVPGPVENLHAVSTSPTSILITWEPPAYANGPVQGYRLFCTEVSTGKEQNIEVDGLSYKLEGLKKFTEYTLRFLAYNRYGPGVSTDDITVVTLSDVPSAPPQNISLEVVNSRSIKVSWLPPPSGTQNGFITGYKIRHRKTTRRGEMETLEPNNLWYLFTGLEKGSQYSFQVSAMTVNGTGPPSNWYTAETPENDLDESQVPDQPSSLHVRPQTNCIIMSWTPPLNPNIVVRGYIIGYGVGSPYAETVRVDSKQRYYSIERLESSSHYVISLKAFNNAGEGVPLYESATTRSITDPTDPVDYYPLLDDFPTSGPDVSTPMLPPVGVQAVALTHEAVRVSWADNSVPKNQKTSDVRLYTVRWRTSFSASAKYKSEDTTSLSYTATGLKPNTMYEFSVMVTKNRRSSTWSMTAHATTYEAAPTSAPKDLTVITREGKPRAVIVSWQPPLEANGKITAYILFYTLDKNIPIDDWIMETISGDRLTHQIMDLSLDTMYYFRIQARNVKGVGPLSDPILFRTLKVEHPDKMANDQGRHGDGGYWPVDTNLIDRSTLNEPPIGQMHPPHGSVTPQKNSN

Common to all, as to test: BLI
In general terms: In BLI a coated tip is dipped into the sample, and binding shifts an interference pattern.

Assay [1] has as its target B2.
The target of assay [2] is B3.
In assay [3] the target is B4.
For assay [4], the target named is B5.
The target of assay [5] is B6.
The target of another assay is human netrin‐1 (human, UniProt O95631 25-604).

B1: chicken netrin‐2L (netrin‐2‐like) (ligand)
chain: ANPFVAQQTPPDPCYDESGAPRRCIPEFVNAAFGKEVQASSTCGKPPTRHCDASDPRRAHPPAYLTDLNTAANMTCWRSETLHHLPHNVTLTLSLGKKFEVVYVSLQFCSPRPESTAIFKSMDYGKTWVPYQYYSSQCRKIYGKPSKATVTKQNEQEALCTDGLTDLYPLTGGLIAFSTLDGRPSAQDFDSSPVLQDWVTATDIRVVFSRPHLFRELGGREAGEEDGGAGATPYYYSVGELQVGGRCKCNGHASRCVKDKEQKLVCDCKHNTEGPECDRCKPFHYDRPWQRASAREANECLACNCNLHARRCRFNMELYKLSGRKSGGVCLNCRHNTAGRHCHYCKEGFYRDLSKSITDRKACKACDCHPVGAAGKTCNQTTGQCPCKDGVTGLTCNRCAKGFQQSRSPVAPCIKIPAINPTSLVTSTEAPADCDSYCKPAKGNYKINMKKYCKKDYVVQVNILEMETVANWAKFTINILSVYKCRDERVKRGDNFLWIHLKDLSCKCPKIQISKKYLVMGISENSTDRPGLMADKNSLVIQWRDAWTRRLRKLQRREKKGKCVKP
As to B1, the Kd in assay [1] worked out at 4.3 nM; in assay [2], 106 nM; in assay [3] it was 8.8 nM; in assay [4], 51.7 nM; in assay [5], 31 nM. Molecule B2 showed a Kd in the assay with human netrin‐1 of 5.4 nM.

In the assay with human netrin‐1, B3 registered a Kd of 12.2 nM.

Molecule B4 showed a Kd in the assay with human netrin‐1 of 6.9 nM.

B5 registered a Kd with human netrin‐1 of 7.8 nM. Still for that read-out and setting: under B6 stands 6.3 nM.
